Assay results from US20250177432A1, “RNA MOLECULES AND COMPOSITIONS FOR CANCER IMMUNOTHERAPY” (WUHAN HOUXIAN BIOPHARMACEUTICAL CO. LTD., priority 2023, published 2025).
Entries after “also recorded” stand apart in the source; their conditions may differ.

B1: MLKL: mRNA encoding MLKL (mixed lineage kinase domain like pseudokinase) or its four-helix bundle domain (nucleic acid)
chain: AUGGAAAAUUUGAAGCAUAUUAUCACCCUUGGCCAGGUCAUCCACAAACGGUGUGAAGAGAUGAAAUACUGCAAGAAACAGUGCCGGCGCCUGGGCCACCGCGUCCUCGGCCUGAUCAAGCCUCUGGAGAUGCUCCAGGACCAAGGAAAGAGGAGCGUGCCCUCUGAGAAGUUAACCACAGCCAUGAACCGCUUCAAGGCUGCCCUGGAGGAGGCUAAUGGGGAGAUAGAAAAGUUCAGCAAUAGAUCCAAUAUCUGCAGGUUUCUAACAGCAAGCCAGGACAAAAUACUCUUCAAGGACGUGAACAGGAAGCUGAGUGAUGUCUGGAAGGAGCUCUCGCUGUUACUUCAGGUUGAGCAACGCAUGCCUGUUUCACCCAUAAGCCAAGGAGCGUCCUGGGCACAGGAAGAUCAGCAGGAUGCAGACGAAGACAGGCGAGCUUUCCAGAUGCUAAGAAGAGAUAAUGAAAAAAUAGAAGCUUCACUGAGACGAUUAGAAAUCAACAUGAAAGAAAUCAAGGAAACUUUGAGGCAGUAUUUACCACCAAAAUGCAUGCAGGAGAUCCCGCAAGAGCAAAUCAAGGAGAUCAAGAAGGAGCAGCUUUCAGGAUCCCCGUGGAUUCUGCUAAGGGAAAAUGAAGUCAGCACACUUUAUAAAGGAGAAUACCACAGAGCUCCAGUGGCCAUAAAAGUAUUCAAAAAACUCCAGGCUGGCAGCAUUGCAAUAGUGAGGCAGACUUUCAAUAAGGAGAUCAAAACCAUGAAGAAAUUCGAAUCUCCCAACAUCCUGCGUAUAUUUGGGAUUUGCAUUGAUGAAACAGUGACUCCGCCUCAAUUCUCCAUUGUCAUGGAGUACUGUGAACUCGGGACCCUGAGGGAGCUGUUGGAUAGGGAAAAAGACCUCACACUUGGCAAGCGCAUGGUCCUAGUCCUGGGGGCAGCCCGAGGCCUAUACCGGCUACACCAUUCAGAAGCACCUGAACUCCACGGAAAAAUCAGAAGCUCAAACUUCCUGGUAACUCAAGGCUACCAAGUGAAGCUUGCAGGAUUUGAGUUGAGGAAAACACAGACUUCCAUGAGUUUGGGAACUACGAGAGAAAAGACAGACAGAGUCAAAUCUACAGCAUAUCUCUCACCUCAGGAACUGGAAGAUGUAUUUUAUCAAUAUGAUGUAAAGUCUGAAAUAUACAGCUUUGGAAUCGUCCUCUGGGAAAUCGCCACUGGAGAUAUCCCGUUUCAAGGCUGUAAUUCUGAGAAGAUCCGCAAGCUGGUGGCUGUGAAGCGGCAGCAGGAGCCACUGGGUGAAGACUGCCCUUCAGAGCUGCGGGAGAUCAUUGAUGAGUGCCGGGCCCAUGAUCCCUCUGUGCGGCCCUCUGUGGAUGAAAUCUUAAAGAAACUCUCCACCUUUUCUAAGUAG
B2: FADD: mRNA encoding FADD (FAS-associated death domain protein) (nucleic acid)
chain: AUGGACCCGUUCCUGGUGCUGCUGCACUCGGUGUCGUCCAGCCUGUCGAGCAGCGAGCUGACCGAGCUCAAGUUCCUAUGCCUCGGGCGCGUGGGCAAGCGCAAGCUGGAGCGCGUGCAGAGCGGCCUAGACCUCUUCUCCAUGCUGCUGGAGCAGAACGACCUGGAGCCCGGGCACACCGAGCUCCUGCGCGAGCUGCUCGCCUCCCUGCGGCGCCACGACCUGCUGCGGCGCGUCGACGACUUCGAGGCGGGGGCGGCGGCCGGGGCCGCGCCUGGGGAAGAAGACCUGUGUGCAGCAUUUAACGUCAUAUGUGAUAAUGUGGGGAAAGAUUGGAGAAGGCUGGCUCGUCAGCUCAAAGUCUCAGACACCAAGAUCGACAGCAUCGAGGACAGAUACCCCCGCAACCUGACAGAGCGUGUGCGGGAGUCACUGAGAAUCUGGAAGAACACAGAGAAGGAGAACGCAACAGUGGCCCACCUGGUGGGGGCUCUCAGGUCCUGCCAGAUGAACCUGGUGGCUGACCUGGUACAAGAGGUUCAGCAGGCCCGUGACCUCCAGAACAGGAGUGGGGCCAUGUCCCCGAUGUCAUGGAACUCAGACGCAUCUACCUCCGAAGCGUCCUGA
B3: #8: codon-optimized OX40L mRNA, SEQ ID NO:29 (nucleic acid)
chain: AUGGAGAGGGUGCAGCCCCUGGAGGAGAACGUUGGCAACGCCGCGAGGCCCAGGUUCGAGCGCAACAAGCUCCUCCUGGUUGCCAGCGUGAUCCAGGGGCUGGGGCUGCUGUUGUGCUUUACAUACAUUUGUUUGCACUUCAGCGCCCUGCAGGUGUCACACAGGUACCCUCGUAUCCAGAGUAUUAAGGUGCAGUUCACCGAGUACAAGAAGGAGAAGGGCUUCAUCUUGACCUCCCAGAAGGAGGACGAGAUAAUGAAGGUCCAGAACAACUCCGUAAUCAUCAACUGUGACGGAUUUUACCUUAUCAGCUUGAAGGGGUACUUCUCCCAGGAGGUGAACAUCAGCCUCCACUACCAGAAGGACGAGGAGCCCCUUUUCCAGCUGAAGAAGGUGAGAUCCGUCAACAGUCUGAUGGUUGCGAGUCUGACCUACAAGGAUAAGGUGUACCUGAAUGUGACCACCGACAACACCUCUCUCGAUGACUUUCACGUGAACGGGGGCGAGCUGAUUCUGAUCCAUCAGAAUCCCGGCGAGUUCUGCGUUCUGUGA
B4: #10: codon-optimized OX40L mRNA, SEQ ID NO:31 (nucleic acid)
chain: AUGGAGCGGGUCCAGCCCCUGGAGGAGAACGUUGGCAACGCAGCGCGGCCCAGGUUCGAGAGGAACAAGCUGCUGCUGGUUGCCAGCGUGAUCCAGGGGCUGGGCCUGCUCCUGUGCUUCACCUACAUCUGCCUGCACUUCAGCGCACUGCAGGUGAGCCACAGGUAUCCCAGGAUACAGAGCAUCAAGGUGCAGUUCACCGAGUACAAGAAGGAGAAGGGCUUCAUCCUCACUUCCCAGAAGGAGGAUGAGAUCAUGAAGGUGCAGAACAACAGCGUGAUCAUCAACUGUGACGGCUUCUACCUGAUCAGCCUGAAGGGGUACUUCAGCCAGGAGGUGAACAUCAGCCUCCACUACCAGAAGGAUGAGGAGCCCCUGUUUCAGCUGAAGAAGGUGAGGUCCGUCAACAGUCUGAUGGUCGCGUCCUUGACCUACAAGGACAAGGUGUACCUGAACGUGACCACCGACAACACCAGCCUGGACGACUUCCAUGUGAACGGCGGUGAGCUGAUCUUGAUUCACCAGAACCCUGGUGAGUUCUGUGUCCUGUGA

Legend:
CT26 tumor cells = test: CT26 tumor model, IL-12/OX40L plus additional agent mRNA (Example 4); type: in vivo, mice; conditions: 1.5 μg mRNA in total, days 9 and 12; for effect of adding the agent on the efficacy of the IL-12/OX40L combination: added agent fused to OX40L mRNA through IRES
Protocol: All of these agents were delivered, in various combinations, to the same animal model as used above, as mRNA (1.5 μg in total), on days 9 and 12, post-tumor cell implantation. While IL-12 and OX40L were encoded on different constructs, the added agent (e.g., FADD) was fused to the OX40L mRNA, through an IRES elements.
All the test agents were safe in the animals (FIG. 8).

[1] = Translation of codon optimized OX40L and IL-12 mRNA; type: cell-based; conditions: FIG. 17
Description: Further, codon optimization was applied to the sequences of OX40L and IL-12 mRNA.

Molecule | anti-tumor effect of the added agent alone (CT26 tumor cells) | effect of adding the agent on the efficacy of the IL-12/OX40L combination (CT26 tumor cells) | translation level [1]
B1 | did not have observable anti-tumor effects | further increased the efficacy of the IL-12/OX12L combination; also recorded: greater than by GSDMD and TNFR | –
B2 | did not have observable anti-tumor effects | further increased the efficacy of the IL-12/OX12L combination; also recorded: greater than by GSDMD and TNFR | –
B3 | – | – | relatively lower translation level
B4 | – | – | relatively lower translation level
